Values quoted from earlier work as cited in PMC3462298.

Experiments:
TRTK-12 = TRTK-12 (UniProt P52907); test: fluorescence competition
[1] = target: TAMRA-TRTK-12 (CapZ peptide) (Homo sapiens); test: fluorescence polarization

Kd (TRTK-12): 2.9 µM
Kd [1]: 1.2 µM
Substance: S100B (from UniProt P04631)
